Reference: patent US20230194519A1 (CCOA THERAPEUTICS, published 2023)

Columns and labels:
[1] = biological target: Activated αIIbβ3 (recombinant human ectodomain αIIbβ3 on DETA beads after incubation in activation buffer with CaCl2, MnCl2 and MgCl2) (human) (UniProt P08514); assay: flow cytometry, 50 nM FITC-PAC-1 on activated αIIbβ3 beads, n ≥ 3
[2] = biological target: Inactive αIIbβ3 (recombinant human ectodomain αIIbβ3 on DETA beads before activation) (human) (UniProt P08514); assay: flow cytometry, 50 nM FITC-PAC-1 on inactive αIIbβ3 beads, n ≥ 3
[3] = biological target: T1, recombinant human ectodomain αIIbβ3 immobilized on a surface (activation state not stated at the place of the … (human, UniProt P08514 32-993; P05106 27-718); assay: flow cytometry sandwich assay, fibrinogen dose response on αIIbβ3 coupled beads, FITC labelled detection antibody, no blocking step
T1 construct: also called αIIbβ3 coupled beads; αIIbβ3 coated beads
From the text: To evaluate the analytical potential of these αIIbβ3 coupled molecular probes, a flow cytometry sandwich assay was developed. […] The same primary antibody was used for both assays, however, the detection antibody for ELISA was HRP labelled and for flow cytometry was FITC labelled. The fibrinogen does response curves are depicted in the inserts of each of FIGS. 5A and 5B. […] The flow cytometry based assay produced a significant increase in performance compared to ELISA, even though a blocking step and a signal amplification-based detection strategy were employed in ELISA. It was postulated that the significant increase in performance observed is due to the SAM and the immobilization strategy which promotes the high-affinity ligand binding conformation of the integrin.

[4] = biological target: T1, recombinant human ectodomain αIIbβ3 …; assay: sandwich ELISA, fibrinogen dose response on plate-immobilized αIIbβ3, HRP labelled detection antibody
Method: Fibrinogen ELISA Assay. To ensure similar immobilization levels of recombinant human ectodomain αIIbβ3 between the ELISA plate and integrin coupled magnetic beads, the wells of a 96-well micro plate (Nunc MaxiSorp) were incubated with the same αIIbβ3 concentration per surface area as during the preparation of the magnetic beads, 6.6×10⁴ μg·mL⁻¹·cm⁻². Each well was coated with αIIbβ3 or control proteins (BSA and β3−/− platelet lysate) by incubation of 6 μg/μL protein in binding buffer (TRIS buffered saline with 0.05% TWEEN-20 and 1 mM each of MgCl₂, MnCl₂ and CaCl₂) at 4° C. overnight. Incubation of 3% skim milk (ED Millipore) and 2% TWEEN-20 for 1 hour at 37° C. was used for blocking. The concentration of αIIbβ3 per surface area of bead used when coating SAM coated beads is 6.6×10⁴ μg·mL⁻¹·cm⁻², therefore the wells of 96 well plates used were coated with the same density EDC/NHS quenching achieved by increase pH to 8.6. Bead concentration for synthesis: 6×10⁹ beads·mL⁻¹; Integrin-bead reaction concentration=250 μg·mL⁻¹; Integrin Used=6.6×10⁴ μg·mL⁻¹·cm⁻²; Well Surface Area (50 μL)=0.93 cm²; Concentration/wee for ELISA=6×10⁴ μg·mL⁻¹ (6 μL/well in 50 μL total volume); Stock [αIIbβ3]=5×10⁵ μg·mL⁻¹.
To evaluate the analytical potential of these αIIbβ3 coupled molecular probes, a flow cytometry sandwich assay was developed. […]

T1 sequence (P08514 other isoform, or with tags, fused parts or gaps limits assumed, chain 1 of 2): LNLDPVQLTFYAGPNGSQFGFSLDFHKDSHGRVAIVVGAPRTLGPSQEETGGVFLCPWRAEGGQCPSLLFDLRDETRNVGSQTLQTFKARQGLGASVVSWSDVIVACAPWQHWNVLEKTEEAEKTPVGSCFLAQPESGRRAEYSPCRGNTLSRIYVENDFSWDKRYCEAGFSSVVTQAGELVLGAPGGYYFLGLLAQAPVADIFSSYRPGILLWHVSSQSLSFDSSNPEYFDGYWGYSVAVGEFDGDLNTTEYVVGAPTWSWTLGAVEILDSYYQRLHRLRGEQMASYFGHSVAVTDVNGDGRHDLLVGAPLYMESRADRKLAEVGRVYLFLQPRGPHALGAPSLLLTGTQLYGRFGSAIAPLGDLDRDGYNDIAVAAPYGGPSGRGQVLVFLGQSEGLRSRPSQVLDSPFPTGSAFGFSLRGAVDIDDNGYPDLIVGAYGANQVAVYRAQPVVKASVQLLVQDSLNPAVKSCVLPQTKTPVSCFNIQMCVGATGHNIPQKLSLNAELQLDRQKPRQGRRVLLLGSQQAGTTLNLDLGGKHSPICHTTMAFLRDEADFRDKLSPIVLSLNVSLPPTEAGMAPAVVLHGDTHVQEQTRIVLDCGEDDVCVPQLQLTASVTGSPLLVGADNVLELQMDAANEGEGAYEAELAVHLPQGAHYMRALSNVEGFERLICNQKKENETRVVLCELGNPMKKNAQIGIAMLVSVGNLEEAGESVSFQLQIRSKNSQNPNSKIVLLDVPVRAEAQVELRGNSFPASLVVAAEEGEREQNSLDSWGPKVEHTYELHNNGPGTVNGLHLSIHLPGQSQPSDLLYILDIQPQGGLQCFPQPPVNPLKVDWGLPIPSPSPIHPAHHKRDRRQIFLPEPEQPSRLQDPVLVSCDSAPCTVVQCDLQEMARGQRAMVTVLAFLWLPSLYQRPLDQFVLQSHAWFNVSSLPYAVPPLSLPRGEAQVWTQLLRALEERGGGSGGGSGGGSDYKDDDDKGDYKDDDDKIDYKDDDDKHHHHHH
T1 sequence (P05106 other isoform, or with tags, fused parts or gaps limits assumed, chain 2 of 2): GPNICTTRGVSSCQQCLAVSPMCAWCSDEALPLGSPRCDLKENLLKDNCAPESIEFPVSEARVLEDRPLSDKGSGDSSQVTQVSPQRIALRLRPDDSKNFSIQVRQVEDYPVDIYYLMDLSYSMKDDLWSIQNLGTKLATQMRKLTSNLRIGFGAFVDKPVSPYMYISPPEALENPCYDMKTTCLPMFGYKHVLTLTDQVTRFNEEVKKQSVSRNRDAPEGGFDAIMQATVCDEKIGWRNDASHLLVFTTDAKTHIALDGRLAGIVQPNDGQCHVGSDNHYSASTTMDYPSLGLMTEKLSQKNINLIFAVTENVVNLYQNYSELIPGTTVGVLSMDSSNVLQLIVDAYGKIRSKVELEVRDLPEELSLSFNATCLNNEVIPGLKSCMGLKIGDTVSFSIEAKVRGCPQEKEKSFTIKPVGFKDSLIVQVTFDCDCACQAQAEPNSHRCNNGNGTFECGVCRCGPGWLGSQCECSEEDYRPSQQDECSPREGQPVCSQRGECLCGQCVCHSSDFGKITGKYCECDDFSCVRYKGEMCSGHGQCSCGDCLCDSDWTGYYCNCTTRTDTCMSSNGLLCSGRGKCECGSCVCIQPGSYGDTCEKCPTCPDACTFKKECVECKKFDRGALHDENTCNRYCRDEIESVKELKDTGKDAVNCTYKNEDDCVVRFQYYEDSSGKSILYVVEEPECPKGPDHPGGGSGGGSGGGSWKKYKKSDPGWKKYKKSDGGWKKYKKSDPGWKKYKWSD
Activated αIIbβ3 (recombinant human ectodomain αIIbβ3 on DETA beads after incubation in activation buffer with CaCl2, MnCl2 and MgCl2) (human), sequence (P08514 other isoform, or with tags, fused parts or gaps limits assumed, chain 1 of 2): as the sequence (P08514 other isoform, or with tags, fused parts or gaps limits assumed, chain 1 of 2) above
Activated αIIbβ3 (recombinant human ectodomain αIIbβ3 on DETA beads after incubation in activation buffer with CaCl2, MnCl2 and MgCl2) (human), sequence (chain, as listed by the source limits assumed, chain 2 of 2): as the sequence (P05106 other isoform, or with tags, fused parts or gaps limits assumed, chain 2 of 2) above
Inactive αIIbβ3 (recombinant human ectodomain αIIbβ3 on DETA beads before activation) (human), sequence (P08514 other isoform, or with tags, fused parts or gaps limits assumed, chain 1 of 2): as the sequence (P08514 other isoform, or with tags, fused parts or gaps limits assumed, chain 1 of 2) above
Inactive αIIbβ3 (recombinant human ectodomain αIIbβ3 on DETA beads before activation) (human), sequence (chain, as listed by the source limits assumed, chain 2 of 2): as the sequence (P05106 other isoform, or with tags, fused parts or gaps limits assumed, chain 2 of 2) above

Mean Fluorescence Intensity (MFI) [1] [MFI]	Mean Fluorescence Intensity (MFI) [2] [MFI]	Kd [3] [nM]	Kd [4] [nM]	Molecule
942	212			PAC-1 (antibody)
		210	2200	fibrinogen (ligand, Alexa488 label in the Table 2 assay, Native ligand of αIIbβ3; also called Alexa488 labelled fibrinogen; Alexa 488 - Fibrinogen) chain 1: ADSGEGDFLAEGGGVRGPRVVERHQSACKDSDWPFCSDEDWNYKCPSGCRMKGLIDEVNQDFTNRINKLKNSLFEYQKNNKDSHSLTTNIMEILRGDFSSANNRDNTYNRVSEDLRSRIEVLKRKVIEKVQHIQLLQKNVRAQLVDMKRLEVDIDIKIRSCRGSCSRALAREVDLKDYEDQQKQLEQVIAKDLLPSRDRQHLPLIKMKPVPDLVPGNFKSQLQKVPPEWKALTDMPQMRMELERPGGNEITRGGSTSYGTGSETESPRNPSSAGSWNSGSSGPGSTGNRNPGSSGTGGTATWKPGSSGPGSTGSWNSGSSGTGSTGNQNPGSPRPGSTGTWNPGSSERGSAGHWTSESSVSGSTGQWHSESGSFRPDSPGSGNARPNNPDWGTFEEVSGNVSPGTRREYHTEKLVTSKGDKELRTGKEKVTSGSTTTTRRSCSKTVTKTVIGPDGHKEVTKEVVTSEDGSDCPEAMDLGTLSGIGTLDGFRHRHPDEAAFFDTASTGKTFPGFFSPMLGEFVSETESRGSESGIFTNTKESSSHHPGIAEFPSRGKSSSYSKQFTSSTSYNRGDSTFESKSYKMADEAGSEADHEGTHSTKRGHAKSRPV chain 2: QGVNDNEEGFFSARGHRPLDKKREEAPSLRPAPPPISGGGYRARPAKAAATQKKVERKAPDAGGCLHADPDLGVLCPTGCQLQEALLQQERPIRNSVDELNNNVEAVSQTSSSSFQYMYLLKDLWQKRQKQVKDNENVVNEYSSELEKHQLYIDETVNSNIPTNLRVLRSILENLRSKIQKLESDVSAQMEYCRTPCTVSCNIPVVSGKECEEIIRKGGETSEMYLIQPDSSVKPYRVYCDMNTENGGWTVIQNRQDGSVDFGRKWDPYKQGFGNVATNTDGKNYCGLPGEYWLGNDKISQLTRMGPTELLIEMEDWKGDKVKAHYGGFTVQNEANKYQISVNKYRGTAGNALMDGASQLMGENRTMTIHNGMFFSTYDRDNDGWLTSDPRKQCSKEDGGGWWYNRCHAANPNGRYYWGGQYTWDMAKHGTDDGVVWMNWKGSWYSMRKMSMKIRPFFPQQ chain 3: YVATRDNCCILDERFGSYCPTTCGIADFLSTYQTKVDKDLQSLEDILHQVENKTSEVKQLIKAIQLTYNPDESSKPNMIDAATLKSRKMLEEIMKYEASILTHDSSIRYLQEIYNSNNQKIVNLKEKVAQLEAQCQEPCKDTVQIHDITGKDCQDIANKGAKQSGLYFIKPLKANQQFLVYCEIDGSGNGWTVFQKRLDGSVDFKKNWIQYKEGFGHLSPTGTTEFWLGNEKIHLISTQSAIPYALRVELEDWNGRTSTADYAMFKVGPEADKYRLTYAYFAGGDAGDAFDGFDFGDDPSDKFFTSHNGMQFSTWDNDNDKFEGNCAEQDGSGWWMNKCHAGHLNGVYYQGGTYSKASTPNGYDNGIIWATWKTRWYSMKKTTMKIIPFNRLTIGEGQQHHLGGAKQAGDV
